{"source": "patent US6998116", "about": "(Genentech, dated 2006)", "proteins": {"B1": {"name": "His10-Apo-2 ligand (purified soluble Apo-2 ligand residues 114-281 with N-terminal Met Gly His10 tag and enterokinase site) (ligand)", "chain": "MGHHHHHHHHHHSSGHIDDDDKHMVRERGPQRVAAHITGTRGRSNTLSSPNSKNEKALGRKINSWESSRSGHSFLSNLHLRNGELVIHEKGFYYIYSQTYFRFQEEIKENTKNDKQMVQYIYKYTSYPDPILLMKSARNSCWSKDAEYGLYSIYQGGIFELKENDRIFVSVTNEHLIDMDHEASFFGAFLVG", "notes": "Made in baculovirus-infected Sf9 cells, purified on Ni2+-NTA; also called His10-Apo-2 ECD"}}, "biological_target": "the molecule itself", "experiment": "self-association: chemical crosslinking (sulfo-NHS/EDC), SDS-PAGE and silver staining", "description": "Minor 48 kDa and 66 kDa bands were also observed, and probably represent soluble Apo-2 ligand homodimers and homotrimers. Chemical crosslinking of the purified $His10$-Apo-2 ligand by incubation with sulfo-NHS (5 mM) (Pierce Chemical) and EDC (Pierce Chemical) at 25 mM and 50 mM (FIG. 1D, lanes 1 and 2, respectively), shifted the protein into the 66 kDa band primarily.", "data": [{"protein": "B1", "values": [{"measurement": "binding result", "value": "binds"}]}]}
